Consider one substance from patent US20220281976A1.

Assay [1] concerns the target human CD33 (human) (UniProt P20138). Description: flow cytometry, human primary T cells.
The target is the same in assay [2]. Description: flow cytometry, human primary monocytes.
For assay [3] the target is unchanged. Description: flow cytometry, human primary macrophages.
Assay [4] has the same target. Put plainly: flow cytometry, human primary dendritic cells.

Sequence of human CD33 (human) (P20138 18-364): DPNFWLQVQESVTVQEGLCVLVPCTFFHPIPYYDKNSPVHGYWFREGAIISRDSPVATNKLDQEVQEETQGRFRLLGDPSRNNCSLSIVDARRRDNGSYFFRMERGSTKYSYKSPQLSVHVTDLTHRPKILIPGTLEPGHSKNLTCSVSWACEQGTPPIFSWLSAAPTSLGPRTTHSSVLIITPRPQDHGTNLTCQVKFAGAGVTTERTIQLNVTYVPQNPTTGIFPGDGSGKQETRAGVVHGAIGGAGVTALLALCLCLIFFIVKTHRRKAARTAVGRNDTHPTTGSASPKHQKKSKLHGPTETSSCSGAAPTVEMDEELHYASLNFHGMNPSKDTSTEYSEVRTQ

Consider isotype control antibody, for which, in the assay with human CD33 (human) [1], the T cell MFI worked out at 42.9. This substance gave a Monocyte MFI in the assay with human CD33 (human) [2] of 43.2. The substance further showed a Macrophage MFI with human CD33 (human) [3] of 451. Moreover, the DC MFI in the assay with human CD33 (human) [4] amounted to 178.
